In the supplement of paper PMC7877785:
± gives the uncertainty stated by the source.

Assay: self-splicing fitness, log relative to wild type (ln ratio); higher = more splicing; Tetrahymena group I intron in knt gene, E. coli kanamycin selection, DiMSum; sequences stand for … in CUCUCU…GGAGGGAAAAGUUAUCAGGCAUGCACCUGGUAGCUAGUCUUUAAACCAAUAGAUUGCAUCGGUUUAAAAGGCAAGACCGUCAAAUUGCGGGAAAGGGGUCAACAGCCGUUCAGUACCAAGUCUCAGGGGAAACUUUGAGAUGGCCUUGCAAAGGGUAUGGUAAUAAGCUGACGGACAUGGUCCUAACCACGCAGCCAAGUCCUAAGUCAACAGAUCUUCUGUUGAUAUGGAUGCAGUUCACAGACUAAAUGUCGGUCGGGGAAGAUGUAUUCUUCUCAUAAGAUAUAGUCGGACCUCUCCUUAAUGGGAGCUAGCGGAUGAAGUGAUGCAACACUGGAGCCGCUGGGAACUAAUUUGUAUGCGAAAGUAUAUUGAUUAGUUUUGGAGUACUCGUGGUCG
How it was run: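 Library with all eight P1ex-region intron nucleotides randomised, intron inside the knt kanamycin-resistance gene on pET-22b(+), in E. coli BL21(DE3). Cells grew overnight at 37°C or 30°C on LB agar with or without 25 μg/mL kanamycin (plus 100 μg/mL carbenicillin, 50 μM IPTG, 0.2% rhamnose), in six replicate transformations. Pooled colonies were amplicon-sequenced on Illumina HiSeq 2500. DiMSum fitness is the error-weighted combination of wild-type-normalised replicate fold changes, kanamycin versus none.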

Sequence | self-splicing fitness (ln) (30 °C) | self-splicing fitness (ln) (37 °C)
GCUAAGCAAUAUUACGGUUA | -1.33 ± 0.1 | -1.49 ± 0.094
UGCUAGCAAUAUUACGAGAG | -2.79 ± 0.22 | -2.13 ± 0.23
CUCUAGCAAUAUUACGAGGU | -3.21 ± 0.26 | -3.6 ± 0.29
CCGAAGCAAUAUUACGGUUG | -1.84 ± 0.059 | -0.955 ± 0.072
CGGGAGCAAUAUUACGACCU | -0.87 ± 0.14 | -0.864 ± 0.18
UAGCAGCAAUAUUACGUUUU | -2.6 ± 0.12 | -2.31 ± 0.19
AGCAAGCAAUAUUACGUAUU | -3.02 ± 0.14 | -1.24 ± 0.11
AGCUAGCAAUAUUACGUUCA | -1.59 ± 0.12 | -0.979 ± 0.15
UACAAGCAAUAUUACGGUAC | -4.41 ± 0.31 | -3.1 ± 0.33
UCCGAGCAAUAUUACGAUUG | -3.7 ± 0.28 | -1.77 ± 0.28
GCGCAGCAAUAUUACGACAC | -0.738 ± 0.38 | 
AACAAGCAAUAUUACGGUUU | -2.73 ± 0.1 | -1.08 ± 0.086
GCACAGCAAUAUUACGGGAC | -1.04 ± 0.068 | -1.35 ± 0.098
GGUCAGCAAUAUUACGUAUU | -0.159 ± 0.055 | 0.511 ± 0.071
AACUAGCAAUAUUACGAAAG | -2.79 ± 0.15 | -1.61 ± 0.18
UUACAGCAAUAUUACGGCCG | -0.529 ± 0.16 | -0.389 ± 0.16
GGACAGCAAUAUUACGGGAC | -1.56 ± 0.13 | -1.98 ± 0.19
CUCGAGCAAUAUUACGGUUA | -2.71 ± 0.16 | -1.58 ± 0.13
GUACAGCAAUAUUACGGAAU | -2.76 ± 0.11 | -1.46 ± 0.12
ACGAAGCAAUAUUACGAUUC |  | -2.8 ± 0.33
ACGUAGCAAUAUUACGGCCA | 0.73 ± 0.19 | 0.143 ± 0.18
UUUUAGCAAUAUUACGUCCU |  | 0.494 ± 0.32
ACUAAGCAAUAUUACGAUAA | -1.94 ± 0.17 | -0.57 ± 0.17
ACCCAGCAAUAUUACGCGCC | -0.907 ± 0.064 | 0.136 ± 0.094
CAAUAGCAAUAUUACGGAUA | -3.03 ± 0.48 | -2.77 ± 0.35
GUGUAGCAAUAUUACGGUAC | -2.1 ± 0.22 | -1.43 ± 0.25
AGUAAGCAAUAUUACGGAUG | -3.1 ± 0.25 | -2.2 ± 0.26

Sequence | self-splicing fitness (ln) (30 °C) | self-splicing fitness (ln) (37 °C)
AGACAGCAAUAUUACGUAAU | -1.3 ± 0.05 | -0.92 ± 0.071
UUGUAGCAAUAUUACGAGUC | -3.94 ± 0.42 | -2.67 ± 0.32
CUAAAGCAAUAUUACGCCGC | -2.9 ± 0.22 | 
CCAAAGCAAUAUUACGCCAC | -3.59 ± 0.3 | -2.01 ± 0.47
CCUGAGCAAUAUUACGAGCG | -2.57 ± 0.14 | -0.727 ± 0.14
AGCAAGCAAUAUUACGCCCG | -0.279 ± 0.08 | -0.0697 ± 0.11
UGCGAGCAAUAUUACGGGUG | -1.72 ± 0.11 | -1.49 ± 0.12
GUGAAGCAAUAUUACGUCGA | -0.469 ± 0.077 | 0.751 ± 0.12
CAUCAGCAAUAUUACGAACC | -2.59 ± 0.24 | -0.525 ± 0.46
ACGGAGCAAUAUUACGCUAG | -2.63 ± 0.25 | -2.16 ± 0.34
CUUGAGCAAUAUUACGCUGU | -2.28 ± 0.19 | -2.06 ± 0.32
CAUAAGCAAUAUUACGUAAU | -4.04 ± 0.28 | -2.16 ± 0.14
AACUAGCAAUAUUACGUCCG | -1.74 ± 0.11 | -0.228 ± 0.13
CAUCAGCAAUAUUACGUUUA | -1.36 ± 0.086 | -1.36 ± 0.094
CUUAAGCAAUAUUACGGAAA | -3.23 ± 0.38 | -2.1 ± 0.28
UUUUAGCAAUAUUACGCAUG | -1.3 ± 0.12 | -0.672 ± 0.13
AGGCAGCAAUAUUACGAAAA | -3.77 ± 0.25 | -2.26 ± 0.15
GGGUAGCAAUAUUACGACCU | -2.3 ± 0.36 | 
UAUCAGCAAUAUUACGUUAC | -4.75 ± 0.39 | -2.6 ± 0.21
AUAGAGCAAUAUUACGCGCC | -1.86 ± 0.32 | -0.949 ± 0.28
ACCGAGCAAUAUUACGCGAG | -2.75 ± 0.19 | -2.06 ± 0.15
AAUGAGCAAUAUUACGAACA | -1.5 ± 0.45 | -1.2 ± 0.48
UUACAGCAAUAUUACGUGCC | -2.86 ± 0.15 | -0.031 ± 0.13
GUAUAGCAAUAUUACGUGUA | -1.79 ± 0.2 | -1.92 ± 0.18
GAGGAGCAAUAUUACGUUUG | -3.33 ± 0.16 | -1.92 ± 0.13
UAGAAGCAAUAUUACGUCUU | -1.18 ± 0.072 | -0.782 ± 0.085
UACUAGCAAUAUUACGAACC |  | -2.16 ± 0.22

Sequence | self-splicing fitness (ln) (30 °C) | self-splicing fitness (ln) (37 °C)
AGGCAGCAAUAUUACGAUGG | -3.56 ± 0.19 | -2.44 ± 0.22
GACUAGCAAUAUUACGAAUC | -2.28 ± 0.32 | -1.83 ± 0.28
GGAAAGCAAUAUUACGUGCU | -1.11 ± 0.089 | -0.467 ± 0.096
UCGCAGCAAUAUUACGUCUA | -0.18 ± 0.11 | 0.716 ± 0.12
UAUUAGCAAUAUUACGACAG | -1.58 ± 0.18 | -0.556 ± 0.19
CUUUAGCAAUAUUACGAGUG | -0.24 ± 0.06 | -0.267 ± 0.077
CUCUAGCAAUAUUACGUGGC | -3.7 ± 0.22 | -2.82 ± 0.24
CGGUAGCAAUAUUACGCGCU | -3.13 ± 0.39 | 
ACGAAGCAAUAUUACGGUAU | -2.57 ± 0.093 | -1.27 ± 0.091
GAAAAGCAAUAUUACGGCUU | -0.227 ± 0.082 | 0.0447 ± 0.096
GUCAAGCAAUAUUACGUACC | -0.597 ± 0.3 | -1.73 ± 0.43
GGCCAGCAAUAUUACGCUUC | -1.98 ± 0.15 | -0.344 ± 0.11
AGGGAGCAAUAUUACGUCUG |  | -1.73 ± 0.36
UUAGAGCAAUAUUACGACGG | 0.111 ± 0.12 | -7.81e-05 ± 0.19
GCAAAGCAAUAUUACGAGUU | -2.47 ± 0.11 | -0.891 ± 0.093
AAAAAGCAAUAUUACGUGGC | -3.59 ± 0.21 | -1.59 ± 0.14
UCAUAGCAAUAUUACGCAAA | -2.54 ± 0.25 | -1.72 ± 0.3
GAGGAGCAAUAUUACGUUUC | -2.74 ± 0.42 | 
CUGGAGCAAUAUUACGCCUA | -1.84 ± 0.36 | -1.44 ± 0.32
GCAAAGCAAUAUUACGUCGU | -2.22 ± 0.095 | -2.27 ± 0.15
AUACAGCAAUAUUACGACGU | -0.374 ± 0.068 | 0.174 ± 0.084
UGGGAGCAAUAUUACGCUGC |  | -1.15 ± 0.28
GGAAAGCAAUAUUACGGGCU | -1.29 ± 0.12 | -0.815 ± 0.18
CGUUAGCAAUAUUACGAAUC | -2.95 ± 0.28 | -2.42 ± 0.3
UUCUAGCAAUAUUACGUUAC | -2.41 ± 0.23 | -2.42 ± 0.29
